Reference: patent publication US20260224761A1, “DUAL LABELLED COMPOUNDS TARGETING THE PROSTATE SPECIFIC MEMBRANE ANTIGEN” (priority 2023, published 2026)
Like-named read-outs stand apart in the source and are kept apart here.

How the values were obtained:
[1] = Lipophilicity, modified shake-flask method; assay type: physicochemical
Experimental: The lipophilicity of [^99mTc]PSMA-HSG, [^99mTc]EuK(SO3)Cy5-mas3 and [^99mTc]EuK(SO3)Cy5(SO3)-mas3 was determined via a modified shake-flask method as described ([…]. et al., Eur. J. Nuc. Mol. Med. Imaging Res., 2014, 4, 63).

[2] = Plasma protein binding; assay type: in vitro ADME; settings: plasma
Experimental: (§1) Quantum yield, molar extinction coefficient and serum protein binding experiments were performed according to previously published procedures (Hensbergen A. W. et al., Dyes and Pigments, 2018, 152, 19-28).

[3] = Biodistribution in LNCaP xenograft bearing NSG mice; assay type: in vivo; settings: NSG, mouse, in vivo, iv, 0.1 nmol/animal, total radioactivity, Biodistribution: LNCaP tumor
Experimental: The biodistribution of [^99mTc]PSMA-HSG, [^99mTc]EuK(SO3)Cy5-mas3 and [^99mTc]EuK(SO3)Cy5(SO3)-mas3 was investigated in LNCaP xenograft bearing NSG mice. […] (0.1 nmol-cohort), respectively.
To assess the influence of the different ligand designs of [^99mTc]PSMA-HSG and [^99mTc]mas3-(SO3)Cy5(SO3)—EuK on in vivo PSMA-targeting and general pharmacokinetics, their in vivo biodistribution was investigated in LNCaP xenograft bearing NSG mice in two different experimental settings: • A) at 2 h p.i. using a ligand dose of 1 nmol/animal. These conditions were chosen to allow comparability of the data from this study (Table 3) with previous results in a different tumor model (Hensbergen, A. W. et al., J. Nucl. Med., 2020, 61, 234-241). Here, [^99mTc]mas3-Cy5(SO3)—EuK was additionally included as an internal reference to establish the “missing link” between studies. • B) at 6 h p.i. using a ligand dose of 0.1 nmol/animal (Table 4). The latter settings were adapted to a timeline and dosing with more similarity to the clinical situation (surgery at a later time point, microdosing principle). Of note, however, a ligand amount of 0.1 nmol/mouse (extrapolation: 280 nmol/70 kg patient) still exceeds the potentially applicable clinical dose (48 nmol/70 kg patient for a compound with a molecular weight of −2100 g/mol). Nevertheless, it represents a dose level at which significant competition effects between unlabeled precursor and radioligand for PSMA binding sites in tumor tissue are not probable (Eder A. C. et al., J. Nucl. Med., 2021, 62, 1461-1467; Kalidindi T. M. et al., Eur. J. Nucl. Med. Mol. Imaging, 2021, 48, 2642-2651).

[4] = system: LNCaP xenograft bearing male NSG mice; experiment: Small animal SPECT/CT blocking study with 2-PMPA co-injection; assay type: in vivo; settings: 2-4 h p.i.; 1 nmol; co-injection of 1 μmol 2-PMPA
Experimental: FIG. 1: Small animal SPECT/CT study in LNCaP xenograft bearing male NSG mice at 2-4 h p.i. […] White arrows indicate the position of the LNCaP xenograft. SPECT/CT images were acquired using an Albira Si PET/SPECT/CT (Bruker Biospin Corporation, Woodbridge, CT, USA) instrument. […] For reconstruction, an ordered subset expectation-maximization algorithm (OSEM) with two iterations was used, and scatter correction was applied. For CT, the following parameters were used: 400 μA intensity and 35 kV voltage, 600 projections. Images were reconstructed using a filtered back-projection (FBP) algorithm with de-ringing correction. Fused representative SPECT/CT images were acquired using the PMOD software (PMOD technologies, version 3.709, Zurich, Switzerland).

[5] = Photophysical characterization (molar extinction coefficient, quantum yield, brightness) in human serum albumin solution; assay type: physicochemical; settings: for Brightness (HSA): multiplication of molar extinction coefficient and quantum yield
Experimental: as §1
Table 1 summarizes the photophysical properties of [^99mTc]PSMA-HSG, [^99mTc]mas3-Cy5(SO3)—EuK and [^99mTc]mas3-(SO3)Cy5(SO3)—EuK and of the different sulfonated Cy5-dyes used for their preparation. […] Because of this latter effect we analyzed the brightness (as multiplication of the molar extinction coefficient and the quantum yield) in humans serum albumin for all three hybrid PSMA agents included in this study (see Table 1). While we indeed see that increasing of the number of sulfonates on the cyanine dye has a positive effect on the brightness all remain within the same order of magnitude.
Because of this latter effect, we analyzed the brightness (as multiplication of the molar extinction coefficient and the quantum yield) in human serum albumin solution for all three hybrid PSMA agents included in this study (see Table 1). While we indeed see that increasing of the number of sulfonates on the cyanine dye has a positive effect on the brightness, all remain within the same order of magnitude.

[6] = target: T1, PSMA (Homo sapiens, UniProt Q04609); experiment: Competitive binding experiments (IC50) using PSMA-expressing LNCaP cells and ([125I]I-BA)EuK as standard radioligand
T1 construct: using PSMA-expressing LNCaP cells and ([^125I]I-BA)EuK as standard radioligand; endogenous in cells; host or cells: LNCaP cells
T1 sequence (Q04609 whole entry): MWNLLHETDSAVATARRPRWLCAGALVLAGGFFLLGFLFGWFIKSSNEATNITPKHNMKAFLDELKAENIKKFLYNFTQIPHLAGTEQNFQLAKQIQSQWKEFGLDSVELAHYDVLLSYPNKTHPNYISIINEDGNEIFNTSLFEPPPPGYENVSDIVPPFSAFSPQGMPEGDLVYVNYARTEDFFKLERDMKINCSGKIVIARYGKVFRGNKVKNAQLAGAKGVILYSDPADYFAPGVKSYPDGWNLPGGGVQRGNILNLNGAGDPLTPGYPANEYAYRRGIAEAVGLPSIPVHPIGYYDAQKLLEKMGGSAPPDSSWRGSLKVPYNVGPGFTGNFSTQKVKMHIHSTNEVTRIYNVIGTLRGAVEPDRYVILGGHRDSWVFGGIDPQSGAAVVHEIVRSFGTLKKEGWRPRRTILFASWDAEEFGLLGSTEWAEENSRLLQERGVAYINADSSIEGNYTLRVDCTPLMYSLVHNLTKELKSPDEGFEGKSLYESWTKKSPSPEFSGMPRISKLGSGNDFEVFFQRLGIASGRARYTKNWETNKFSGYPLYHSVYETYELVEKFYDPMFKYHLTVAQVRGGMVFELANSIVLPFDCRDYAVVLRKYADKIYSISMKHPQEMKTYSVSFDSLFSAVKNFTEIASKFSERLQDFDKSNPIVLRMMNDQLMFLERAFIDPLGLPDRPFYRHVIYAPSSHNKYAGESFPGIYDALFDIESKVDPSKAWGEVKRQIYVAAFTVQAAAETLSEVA
Experimental: Competitive binding experiments (IC50) were carried out in accordance with an established protocol ([…]. et al., Eur. J. Nuc. Mol. Med. Imaging Res., 2014, 4, 63) using PSMA-expressing LNCaP cells and ([^125I]I-BA)EuK as standard radioligand.

[7] = system: plasma proteins; experiment: Plasma protein binding; assay type: in vitro ADME
Experimental: as §1

[8] = system: PC3-Pip xenografts in NSG mice; experiment: In vivo and ex vivo fluorescence imaging of PC3-Pip xenografts in NSG mice; settings: for detectable fluorescence signal: 6 h p.i., 0.1 nmol ligand
Experimental: FIG. 3: In vivo (A) and ex vivo (B) fluorescence imaging of PC3-Pip xenografts in NSG mice using PSMA-HSG (upper two rows), the reference Ac-mas3-Cy5(SO3)—EuK (middle two rows) and Ac-mas3-(SO3)Cy5(SO3)—EuK (lower two rows). Conditions were 2 h p.i. using a peptide dose of 1 nmol/mouse and 6 h p.i. using a peptide dose of 0.1 nmol/mouse, respectively (n=1 per condition). In vivo and ex vivo fluorescence imaging of intact tumors was performed using a clinical-grade fluorescence KARL STORZ Endoscope; fluorescence confocal imaging of 2 mm tumor slices (right) was performed using a Leica SP8 WLL microscope.
In vivo fluorescence imaging of PC3-Pip xenografts in NSG mice (2 h p.i. at a ligand dose of 1 nmol and 6 h p.i. at a ligand dose of 0.1 nmol, respectively; n=1 per compound and condition) was performed using a clinical-grade fluorescence laparoscopy set-up (KARL STORZ Endoskope GMBh & Co. KG). Cy5-based tumor imaging was performed using D-light P system and a prototype modified IMAGE 1 S light source with integrated Cy5 filter (both KARL STORZ Endoskope GMBh & Co. KG). Images were recorded using integrated KARL STORZ software and image processing was performed using in-house developed MATLAB software that provided a signal intensity-based representation of the signal-to-background ratio (SBR; Azargoshasb S. et al., Mol. Imaging Biol., 2022, https://doi.org/10.1007/s11307-022-01736-y; de Barros H. A. et al., Eur. Urol., 2022, 82, 97-105).
Fluorescence Confocal Imaging of Excised Tumor Specimens After in vivo imaging tumor specimens (N=1 per tracer) were excised and cut into 2 mm slices. Prior to imaging, slices were placed on a 35-mm culture dish containing a glass insert (MatTek Co.). Fluorescence confocal imaging was then performed using a Leica SP8 WLL microscope (Leica Microsystems). For assessment of tracer uptake Cy5 settings were used; λex=633 nm, λem=650-700 nm. Images were processed using accompanying LASX software (Leica Application Software Suite 4.8).

[9] = target: T1, PSMA; settings: LNCaP cells; reference compounds, assayed under identical conditions (literature cited in table title); # = free mas3-chelator; cited from earlier work
[10] = tendency to associate with plasma proteins

C[N+]1=C(/C=C/C=C/C=C2/N(CCCCCC(=O)NCCCC[C@@H](NC(=O)[C@@H](CO)NC(=O)[C@@H](CO)NC(=O)[C@@H](CO)NC(=O)CS)C(=O)N[C@H](Cc3ccc(O)cc3)C(=O)N[C@H](Cc3ccc4ccccc4c3)C(=O)N[C@H](CCCCNC(=O)CCCCCCC(=O)NCCCC[C@H](NC(=O)N[C@@H](CCC(=O)O)C(=O)O)C(=O)O)C(=O)O)c3ccc(S(=O)(=O)O)cc3C2(C)C)C(C)(C)c2cc(S(=O)(=O)[O-])ccc21 [[^99mTc]PSMA-HSG, metal not drawn]
logP [1]: -2.94
fraction unbound ([2]; Plasma Protein Binding (%)): 0.007
fraction unbound [2, 10]: 0.006
tissue uptake at 6 h [3]: 17.1 ± 2.9 %ID/g
specificity of tracer uptake in tumor and PSMA-positive tissues [4]: PSMA-specific

CC(=O)SCC(=O)N[C@H](CO)C(=O)N[C@H](CO)C(=O)N[C@H](CO)C(=O)NCCCCCC(=O)NCCCCN1/C(=C/C=C/C=C/C2=[N+](CCCCCC(=O)NCCCC[C@H](NC(=O)N[C@@H](CCC(=O)O)C(=O)O)C(=O)O)c3ccc(S(=O)(=O)O)cc3C2(C)C)C(C)(C)c2cc(S(=O)(=O)[O-])ccc21 [Ac-mas3-(SO3)Cy5(SO3)-EuK]
Quantum yield (HSA) [5]: 16%
Brightness (HSA) [5]: 38900 L/mol/cm
Molar extinction coefficient free dye (HSA) [5]: 243000 L/mol/cm
brightness compared to PSMA-HSG ([5]; text b242): fivefold lower brightness
reduction in affinity compared to the mono-sulfonated analog Ac-mas3-Cy5(SO3)-EuK [6]: almost eight-fold reduction
IC50 ([6]; LNCaP cells, free mas3-chelator, novel compounds): 131 ± 29 nM
tendency to associate with plasma proteins [7]: 77.9%
fluorescence signal in the xenografts ([8]; 2 h p.i., ligand dose 1 nmol, in vivo and ex vivo): weakest signal
detectable fluorescence signal [8]: virtually not detectable

CC(=O)SCC(=O)N[C@H](CO)C(=O)N[C@H](CO)C(=O)N[C@H](CO)C(=O)NCCCCC(=O)NCCCCN1\C(=C/C=C/C=C/C2=[N+](CCCCCC(=O)NCCCC[C@H](NC(=O)N[C@@H](CCC(=O)O)C(=O)O)C(=O)O)c3ccc(S(=O)(=O)[O-])cc3C2(C)C)C(C)(C)c2ccccc21 [Ac-mas3-Cy5(SO3)-EuK]
Quantum yield (HSA) [5]: 21%
Brightness (HSA) [5]: 33800 L/mol/cm
Molar extinction coefficient free dye (HSA) [5]: 161000 L/mol/cm
fraction unbound [2, 10]: 0.028
detectable fluorescence signal [8]: weak
IC50 [9]: 17.8 ± 2.9 nM
